T1: extracellular domain of human CD70 (SEQ ID NO: 89), hCD70-Fc-trimer, ACRO Biosystems (human, UniProt P32970 52-193, chemically biotinylated where the biotinylated form was used)
T1 construct: also called human CD70-Fc-trimer; Bio.CD70
T1 sequence: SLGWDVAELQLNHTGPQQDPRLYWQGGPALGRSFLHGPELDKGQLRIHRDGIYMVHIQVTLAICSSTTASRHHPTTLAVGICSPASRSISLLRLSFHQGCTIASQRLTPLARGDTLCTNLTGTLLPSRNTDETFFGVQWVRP

T2: biotinylated extracellular domains of human CD123 (uniprot ID 26951), Fc format (human, UniProt P26951 19-305, biotinylated)
T2 construct: extracellular domain
T2 sequence (looked up): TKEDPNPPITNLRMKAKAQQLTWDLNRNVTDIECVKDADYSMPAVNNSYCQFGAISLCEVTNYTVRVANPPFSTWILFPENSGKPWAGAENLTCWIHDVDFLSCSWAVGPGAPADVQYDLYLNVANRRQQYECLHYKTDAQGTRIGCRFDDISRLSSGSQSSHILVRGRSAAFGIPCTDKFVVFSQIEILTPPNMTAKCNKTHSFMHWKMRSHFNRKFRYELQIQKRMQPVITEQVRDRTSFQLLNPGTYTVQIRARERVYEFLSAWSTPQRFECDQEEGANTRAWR


How the values were obtained:
[1] = target: T3, biotinylated extracellular domain of human CD33 (SEQ ID NO: 87), Fc and Avi tagged (human, UniProt P20138 18-259, biotinylated with BirA-GST (Avi tag)); experiment: crude extract HTRF, 6 nM biotinylated hCD33
T3 construct: also called hCD33; human target hCD33
Excerpt: (§1) Similarly, individual selected ankyrin repeat proteins specifically binding to hCD33 in solution were identified by a Homogeneous Time Resolved Fluorescence (HTRF) assay using crude extracts of ankyrin repeat protein-expressing Escherichia coli cells using standard protocols. Ankyrin repeat protein clones selected by ribosome display were cloned into derivatives of the pQE30 (Qiagen) expression vector (pMPDV045), which contains a C-terminal CD3 binding designed ankyrin repeat protein followed by a Flag tag, transformed into E. coli XL1-Blue (Stratagene), plated on LB-agar (containing 1% glucose and 50 μg/ml ampicillin) and then incubated overnight at 37° C. […]
(§2) The extract of each lysed clone was applied as a 1:1000 dilution (final concentration) in PBSTB (PBS supplemented with 0.1% Tween 20® and 0.2% (w/v) BSA, pH 7.4) together with 6 nM (final concentration) biotinylated hCD33 (full-length or splice variant of ECD CD33), 1:400 (final concentration) of anti-strep-Tb HTRF antibody-FRET donor conjugate (Cisbio) and 1:400 (final concentration) of anti-6His-D2 antibody FRET acceptor conjugate (Cisbio) to a well of 384 well plate and incubated for 60 minutes at RT. The HTRF was read-out on a Tecan M1000 using a 340 nm excitation wavelength and a 665±10 nm emission filter. […]

[2] = target: T1, extracellular domain of human CD70 (SEQ …); experiment: crude extract HTRF, 2 nM biotinylated hCD70
Excerpt: as §1, with “Individual” for “Similarly, individual”, “hCD70” for “hCD33”, “(pMPDV25),” for “(pMPDV045), which contains a C-terminal CD3 binding designed ankyrin repeat protein followed by a Flag tag,”, “C. Single colonies were picked into a 96 well plate (each clone in a single well) containing 160 μl growth medium (TB containing 1% glucose and 50 μg/ml ampicillin) and incubated overnight at 37° C., shaking at 800 rpm.” for “C.”
as §2, with “a 1:2000” for “a 1:1000”, “with 2” for “with 6”, “biotinylated hCD70,” for “biotinylated hCD33 (full-length or splice variant of ECD CD33),”

[3] = target: T2, biotinylated extracellular domains of …; experiment: crude extract HTRF, 6 nM biotinylated CD123
Excerpt: as §1, with “Individual” for “Similarly, individual”, “hCD123” for “hCD33”
The extract of each lysed clone was applied as a 1:500 dilution (final concentration) in PBSTB (PBS supplemented with 0.1% Tween 20® and 0.2% (w/v) BSA, pH 7.4) together with 6 nM (final concentration) biotinylated human or cyno CD123, 1:300 (final concentration) of anti-6His-D2 HTRF antibody-FRET acceptor conjugate (Cisbio) and 1:300 (final concentration) of anti-strep-Tb antibody FRET donor conjugate (Cisbio) to a well of 384 well plate and incubated for 120 minutes at RT. The HTRF was read-out on a Tecan M1000 using a 340 nm excitation wavelength and a 665±10 nm emission filter.

T3 sequence (P20138 18-259 R69G): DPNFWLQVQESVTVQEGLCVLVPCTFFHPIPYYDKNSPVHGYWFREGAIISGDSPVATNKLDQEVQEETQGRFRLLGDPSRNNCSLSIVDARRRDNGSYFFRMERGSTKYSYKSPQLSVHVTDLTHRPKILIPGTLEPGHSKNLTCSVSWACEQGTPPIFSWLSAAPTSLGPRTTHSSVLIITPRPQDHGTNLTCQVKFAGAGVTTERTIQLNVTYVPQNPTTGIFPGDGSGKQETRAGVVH

Row | Binder | binding result [2] | binding result [3] | further results
1 | DARPin® protein #38 (designed binder, CD33-specific domain) DLGVKLLRAAFHGQDDEVRILLAAGADVNAKDTDGETPLHYAAQFGHLEIVEVLLKAGADVNAKDAYGATPLHWAAWHGHLEIVEVLLKAGADVNAQDVSGATPADLAAKVGHEDIAEVLQKAA | – | – | binding result [1]: binds
2 | DARPin® protein #68 (designed binder, CD70-specific domain; screened as crude extract (vector pMPDV25)) DLGKKLLQAARAGQLDEVRELLKAGADVNAKDQAGLTPLHIAAATGHLEIVEVLLKAGADVNAKDFSGLTPLHLAAFEGHLEIVEVLLKAGADVNAKDQHGQTPLHLAAWTGHLEIVEVLLKAGADVNAQDKSGKTPADLAARAGHQDIAEVLQKAA | binds | – | –
3 | DARPin® protein #63 (designed binder, CD123-specific domain; screened as crude extract) DLGKKLLQAARAGQLDEVRELLKAGADVNAKDQYGRTPLHLAAIKGHLEIVEVLLKAGADVNAKDSLGYTPLHLAAVEGPLEIVEVLLKAGADVNAKDAYGQTPLHIAAAWGHLEIVEVLLKAVADVNAQDKSGKTPADLAARAGHQDIAEVLQKAA | – | binds | –
4 | DARPin® protein #64 (designed binder, CD123-specific domain; screened as crude extract) DLGWKLLDAAEIGQDDEVRILLAAGADVNAKDKQGITPLHIAAAHGHLEIVEVLLKAGADVNAKDEIGRTPLHLAAFKGHLEIVEVLLKAGADVNAQDIIGETPADLAAVRGHEDIAEVLQKAA | – | binds | –
5 | DARPin® protein #69 (designed binder, CD70-specific domain; screened as crude extract (vector pMPDV25)) DLGYKLLQAAYDGQDDEVRILLAAGADVNAKDSRGQTPLHYAASIGHLEIVEVLLKAGADVNAKDDHGWTPLHLAAWSGHLEIVEVLLKAGADVNAQDQEGTTPADLAAVQSHEDIAEVLQKAA | binds | – | –

Source: patent US20240254229A1 (Molecular Partners, published 2024)
